B1: Wild-type human cTnT-C14 peptide (C-terminal end 14 amino acids, residues 275-288, of cardiac troponin T) (peptide, UniProt P45379-6 275-288, looked up)
peptide: SKTRGKAKVTGRWK
B2: Human cTnT-C14 peptide containing HCM-linked mutation K280N (peptide, UniProt P45379-6 275-288, looked up)
peptide: SKTRGNAKVTGRWK
B3: Human cTnT-C14 peptide containing HCM-linked mutation R278C (peptide, UniProt P45379-6 275-288, looked up)
peptide: SKTCGKAKVTGRWK
B4: Human cTnT-C14 peptide containing HCM-linked mutation R286C (peptide, UniProt P45379-6 275-288, looked up)
peptide: SKTRGKAKVTGCWK

The text below walks through data of article PMC13334471 (Journal of molecular and cellular cardiology, 2026).

One experiment deals with F-actin-Tm composite thin filament (rabbit, UniProt P68135 1-377; P58772 1-284). In words: SPR.
On to B1, for which the “Maximum Signal (Δpm)” value is 434 Δpm; the koff (usually a measure of how fast the partners let go of each other) was 0.0362 s⁻¹; the kon (as a rule, a measure of how fast the partners come together) is 5270 M⁻¹ s⁻¹.
The matching figures for B2: 109 Δpm, 0.041 s⁻¹ and 6450 M⁻¹ s⁻¹.
With B3, the “Maximum Signal (Δpm)” value is 134 Δpm, the dissociation rate constant (koff) is 0.02 s⁻¹ and the on-rate (kon) is 3930 M⁻¹ s⁻¹.
As for B4, the “Maximum Signal (Δpm)” value was 126 Δpm, the off-rate constant (koff) is 0.0256 s⁻¹ and the kon was 3850 M⁻¹ s⁻¹.

The next experiment addresses Rabbit cardiac α-tropomyosin (rabbit, UniProt P58772 1-284). Briefly: SPR.
Take B1: the “Maximum Signal (Δpm)” value is 420 Δpm, the koff turned out to be 0.0374 s⁻¹ and the on-rate (kon) was determined as 5910 M⁻¹ s⁻¹.
Consider B2, for which the “Maximum Signal (Δpm)” value is 108 Δpm, the off-rate constant (koff) came to 0.0351 s⁻¹ and the kon was found to be 6600 M⁻¹ s⁻¹.
On to B3, for which the “Maximum Signal (Δpm)” value is 95.4 Δpm, the koff was determined as 0.0219 s⁻¹ and the on-rate constant (kon) came to 2500 M⁻¹ s⁻¹.
B4: the “Maximum Signal (Δpm)” value is 114 Δpm, the koff worked out at 0.0166 s⁻¹ and the kon is 3110 M⁻¹ s⁻¹.

The next experiment concerns the target F-actin from rabbit back muscle (rabbit, UniProt P68135 1-377). In words: SPR.
For the molecule B1, the “Maximum Signal (Δpm)” value was 397 Δpm, the koff was found to be 0.0278 s⁻¹ and the kon came to 4150 M⁻¹ s⁻¹.
Consider B2, for which the “Maximum Signal (Δpm)” value is 112 Δpm, the koff turned out to be 0.0415 s⁻¹ and the on-rate constant (kon) was found to be 3810 M⁻¹ s⁻¹.
On the same counts, the results for B3 are 144 Δpm, 0.0169 s⁻¹ and 1450 M⁻¹ s⁻¹.
On the same counts, the results for B4 are 112 Δpm, 0.0172 s⁻¹ and 1570 M⁻¹ s⁻¹.
